For one assay, the system named is MDA-MB-468 xenografts. Nature of the assay: MDA-MB-468 xenografts in SCID mice, tumor growth. In kind it is in vivo. On the procedure: Severe combined immunodeficient mice xenografts of MDA-MB-468 cells included the following aspects. […] When tumor burden reached 1,500 to 2,000 mg, mice were euthanized. The tumors were removed, cut into 20 to 30 mg fragment, and subsequently transplanted (s.c.) bilaterally into similarly conditioned 28 animals. […] Treatment was started on day 7 and continued until day 23. Animals and tumor burden were followed for up to 55 days. Tumor measurements were carried out at multiple time points during the experimental period. Mice were weighed and monitored for signs of toxicity. Tumor weights in SCID mice were estimated as tumor weight (mg)=(A×B2)/2, where A and B are the tumor length and width (in mm), respectively.

The subject of assay [1] is MDA-MB-468 cells. Nature of the assay: MTT growth assay and CalcuSyn synergy analysis in MDA-MB-468 cells. It is filed as cell-based, human. Particulars: for Dasatinib (Fa): MDA-MB-468. On the procedure:
(§1) Growth inhibition assay included the following aspects. […] At the end of the treatment period, cells were incubated with 10% of 5 mg/mL stock of MTT and incubated for 3 hours at 37° C.
(§2) Analysis of interaction between two drugs included the following aspects. Combination index (CI) method adapted for in vitro anticancer drug testing was used to determine the nature of interaction between the two agents as described by Majumdar APN, Banerjee S, Nautiyal J, et al. Curcumin synergizes with resveratrol to inhibit colon cancer. […] Based on CI values, the extent of synergism/antagonism may be determined.

A further assay concerns MDA-MB-231 cells. The assay can be described thus: MTT growth assay and CalcuSyn synergy analysis in MDA-MB-231 cells. In kind it is cell-based, human. On the procedure: as §1, §2
The subject of assay [2] is MDA-MB-468 cells. The assay can be described thus: Apoptosis in MDA-MB-468 cells (DNA fragmentation ELISA, acridine orange staining). Particulars: MDA-MB-468 cells preincubated with inhibitor for 3 hours, then EBIP and dasatinib; FIG. 15B. A general note: In an ELISA, binding on a coated surface is turned into a signal by an enzyme label.
The test system of assay [3] is breast cancer SKBR cell xenografts. The assay can be described thus: SKBR cell xenografts in SCID mice. The note with it: FIG. 9. It is filed as in vivo. An excerpt: SKBR cells express high levels of HER-2 but contain little no HER-1/EGFR or HER-3.
Another assay has as its target T1, HER-3 (Homo sapiens, UniProt P21860).
T1 construct: endogenous in cells; host or cells: MDA-MB-453
Nature of the assay: Heregulin-induced phosphorylation of HER-3 in MDA-MB-453 cells. It is filed as cell-based. The note with it: preincubation, then heregulin, FIG. 8, FIG. 19. The text has this: (§3) The breast cancer MDA-MB-453 cells contain high levels of HER-2 and HER-3. […] Binding of heregulin HER-3 leads to activation and subsequent heterodimerization of HER-3 with one or more EGFR family members.
(§4) Western blot analysis included the following aspects.

The subject of assay [4] is Erks (extracellular signal-regulated kinases). The assay can be described thus: TGF-α-induced phosphorylation of ERKs in HCT-116 cells (Western blot). In kind it is cell-based. The note with it: prior exposure, FIG. 6. (In western blotting, separated proteins are transferred to a membrane and probed.)
A further assay deals with c-Src. Nature of the assay: TGF-α-induced phosphorylation of Src in HCT-116 cells (Western blot). The note with it: prior exposure, FIG. 5. In kind it is cell-based.
Assay [5] has as its system breast cancer SKBR-3 cells. The assay can be described thus: MTT growth assay in breast cancer SKBR-3 cells. Particulars: increasing concentrations, 48 h; FIG. 7. In kind it is cell-based, human. The protocol: as §1
On the technique in general: Tetrazolium dyes change colour on reduction, which living cells bring about.

Assay [6] has as its system colon cancer HCT-116 cells. The assay can be described thus: MTT growth assay in colon cancer HCT-116 cells. It is filed as cell-based. On the procedure:
as §1

Another assay deals with T2, EGFR (Homo sapiens, UniProt P00533).
T2 construct: endogenous in cells
The assay can be described thus: TGF-α-induced tyrosine phosphorylation of EGFR (Western blot). In kind it is cell-based. Particulars: preincubation 10 μg/ml for 30 min; 10 nM TGF-α for 10 min; FIG. 4.

Another assay addresses T3, HER-2 (Homo sapiens, UniProt P04626).
T3 construct: endogenous in cells; host or cells: MDA-MB-453
Nature of the assay: Heregulin-induced phosphorylation of HER-2 in MDA-MB-453 cells. In kind it is cell-based. Particulars: preincubation, then heregulin, FIG. 8, FIG. 19.
Excerpt: as §3, §4

“Also recorded” adds a separate entry of the source. *: point of attachment. Cbz = O=C(OCc1ccccc1)*; CH2F = FC*

T1 sequence (P21860 20-1342): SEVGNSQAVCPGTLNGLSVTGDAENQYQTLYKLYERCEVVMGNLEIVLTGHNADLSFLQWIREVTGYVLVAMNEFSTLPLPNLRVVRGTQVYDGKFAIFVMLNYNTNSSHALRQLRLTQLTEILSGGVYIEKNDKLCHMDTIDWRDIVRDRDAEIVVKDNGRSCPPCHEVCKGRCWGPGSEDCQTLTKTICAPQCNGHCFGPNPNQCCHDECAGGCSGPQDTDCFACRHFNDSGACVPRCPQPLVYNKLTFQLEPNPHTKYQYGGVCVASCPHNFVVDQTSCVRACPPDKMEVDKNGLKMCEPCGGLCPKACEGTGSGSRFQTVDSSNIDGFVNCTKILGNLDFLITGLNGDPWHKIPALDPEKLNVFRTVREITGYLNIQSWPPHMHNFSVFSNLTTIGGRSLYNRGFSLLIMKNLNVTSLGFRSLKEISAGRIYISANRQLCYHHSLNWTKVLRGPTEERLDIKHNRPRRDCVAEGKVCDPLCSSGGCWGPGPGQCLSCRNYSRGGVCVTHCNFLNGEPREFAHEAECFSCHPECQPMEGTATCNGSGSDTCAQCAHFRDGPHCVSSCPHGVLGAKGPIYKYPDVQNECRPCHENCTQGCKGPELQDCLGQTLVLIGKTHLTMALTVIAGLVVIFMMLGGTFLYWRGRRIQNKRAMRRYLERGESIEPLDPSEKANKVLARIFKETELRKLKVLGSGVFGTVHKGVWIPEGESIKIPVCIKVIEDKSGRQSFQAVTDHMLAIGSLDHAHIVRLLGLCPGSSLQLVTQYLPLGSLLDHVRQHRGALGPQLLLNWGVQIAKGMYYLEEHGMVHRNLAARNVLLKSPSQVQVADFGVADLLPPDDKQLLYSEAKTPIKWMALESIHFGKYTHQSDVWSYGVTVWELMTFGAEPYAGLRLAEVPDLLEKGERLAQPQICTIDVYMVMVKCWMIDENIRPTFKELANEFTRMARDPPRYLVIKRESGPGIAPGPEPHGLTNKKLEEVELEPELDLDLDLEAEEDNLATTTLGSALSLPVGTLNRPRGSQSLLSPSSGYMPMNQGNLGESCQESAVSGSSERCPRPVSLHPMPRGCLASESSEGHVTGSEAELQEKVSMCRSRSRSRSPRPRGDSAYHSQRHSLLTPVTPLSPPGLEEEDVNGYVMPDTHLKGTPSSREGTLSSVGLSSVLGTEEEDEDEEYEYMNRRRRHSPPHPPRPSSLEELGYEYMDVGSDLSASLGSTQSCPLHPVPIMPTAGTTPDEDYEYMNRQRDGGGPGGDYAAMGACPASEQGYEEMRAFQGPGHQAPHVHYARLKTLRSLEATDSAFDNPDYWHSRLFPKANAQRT

In the case of `Cc1nc(Nc2ncc(C(=O)Nc3c(C)cccc3Cl)s2)cc(N2CCN(CCO)CC2)n1` [Dasatinib, dasatinib], the “tumor growth, significance of inhibition” value in the assay on MDA-MB-468 xenografts (P<0.05, FIG. 16, Table 3) is “no significant inhibition”. Further, in the assay on MDA-MB-468 xenografts (day-55, dasatinib 10 mg/kg gavage and/or EBIP 25 μg/mouse s.c., every other day, day 7 to 23), the “tumor weight at the end of 55 days, Mean ± SD” value is given as 584 ± 189 mg. In addition, in the assay on MDA-MB-468 xenografts (vs vehicle-treated controls, dasatinib 10 mg/kg gavage and/or EBIP 25 μg/mouse s.c., every other day), the “inhibition (suppression) of tumor growth” value is “about 27%”. The “Dasatinib (Fa)” value with MDA-MB-468 cells [1] (Dasatinib 0.50 μM) is 0.216; in the assay with MDA-MB-468 cells [1] (Dasatinib 1.0 μM) it was 0.286; in the assay with MDA-MB-468 cells [1] (Dasatinib 2.0 μM) it was 0.315; with MDA-MB-468 cells [1] (Dasatinib 4.0 μM), 0.382; in the assay on MDA-MB-231 cells (Dasatinib 0.50 μM), 0.354; in the assay on MDA-MB-231 cells (Dasatinib 1.0 μM), 0.322. The “Dasatinib (Fa)” value in the assay with MDA-MB-231 cells (Dasatinib 2.0 μM) is listed as 0.353; with MDA-MB-231 cells (Dasatinib 4.0 μM) it was 0.392.

Turning to Cbz-IETD-CH2F, the “effect of caspase inhibitor on apoptosis induction by the combined therapy” value in the assay with MDA-MB-468 cells [2] is on record as “blocked apoptosis induction by the combined therapy”.

As for Cbz-LEHD-CH2F, the “effect of caspase inhibitor on apoptosis induction by the combined therapy” value in the assay with MDA-MB-468 cells [2] is listed as “blocked apoptosis induction by the combined therapy”.

B1: ERRP: rat ERRP that includes amino acids 1-478 and includes the U region (SEQ ID NO: 16); pan-erbB inhibitor (protein, listed as Rattus norvegicus)
chain: MRPSGTARTTLLVLLTALCAAGGALEEKKVCQGTSNRLTQLGTFEDHFLSLQRMYNNCEVVLGNLEITYVQRNYDLSFLKTIQEVAGYFLIALNTVERIPSEDLQIIRGNALYENTYALAILSNYGTNRTGLRELPMRNLQEILIGAVRFSNNPILCNMDTIQWRDIVQNVFMSNMSMDLQSHPSSCPKCDPSCPNGSCWGGGEENCQKLTKIICAQQCSHRCRGRSPSDCCHNQCAAGCTGPQKSDCLVCQKFQDEATCKDTCPPLMLYNPTTYQMDVNPEGKYSFGATCVKNCPRNYVVTDHGSCVRACGPDYYEVEEDGIRKCKKCDGPCRKVCNGIGIGEFKDTLSINATNIKHFKYCTAISGDLHILPVAFKGDSFTRTPPLDPRELEILKTVKEITGSLLIQAWPENWTDLHAFENLEIIRGRTKQHGQFSLAVVGLNITSLPWQVPSLSWQAVTRPLHPLAQNRVSWDTGP
Regarding B1, in assay [3] (SCID mice, vs vehicle), the “tumor growth of SKBR xenografts” value is given as “noticeably decreased”. Further, in assay [3] (intratumoral 50 μg once a day, day 13 to 26, end of 40 day period, vs controls), the “inhibition of tumor growth” value is listed as “over 50%”. In addition, the “inhibition of heregulin-induced phosphorylation/activation of HER-3” value with HER-3 is given as “able to inhibit; also recorded: about as equally effective as EBIP”. Besides, the “attenuation of TGF-α-induced phosphorylation of Erks” value in assay [4] was “greatly attenuated”. Moreover, in the assay on c-Src, the “attenuation of TGF-α-induced phosphorylation of Tyr416 of c-Src” value is listed as “abrogated”. Moreover, in assay [5], the “inhibition of growth of SKBR-3 cells” value was “markedly inhibit the growth in a dose-dependent manner”. Also, the inhibition of growth (usually the relative decrease from the control value, in per cent) in [6] (dose of 20 μg/mL, vs corresponding controls, FIG. 18) is recorded as 70%. Further, the “inhibition of growth of MDA-MB-468 cells” value in the assay on MDA-MB-468 cells [1] (immunoaffinity-purified protein, FIG. 12D) was “equally effective”. For the same molecule, the “attenuation of TGF-α-induced tyrosine phosphorylation of EGFR (amino acid 845)” value with EGFR was “greatly abrogates this stimulation”. Also, the “inhibition of heregulin-induced phosphorylation/activation of HER-2” value with HER-2 was “able to inhibit; also recorded: about as equally effective as EBIP”.

B2: rEGFR-447: rat ERRP that includes amino acids 1-447 but lacks the U region (SEQ ID NO: 15) (protein, listed as Rattus norvegicus)
chain: MRPSGTARTTLLVLLTALCAAGGALEEKKVCQGTSNRLTQLGTFEDHFLSLQRMYNNCEVVLGNLEITYVQRNYDLSFLKTIQEVAGYFLIALNTVERIPSEDLQIIRGNALYENTYALAILSNYGTNRTGLRELPMRNLQEILIGAVRFSNNPILCNMDTIQWRDIVQNVFMSNMSMDLQSHPSSCPKCDPSCPNGSCWGGGEENCQKLTKIICAQQCSHRCRGRSPSDCCHNQCAAGCTGPQKSDCLVCQKFQDEATCKDTCPPLMLYNPTTYQMDVNPEGKYSFGATCVKNCPRNYVVTDHGSCVRACGPDYYEVEEDGIRKCKKCDGPCRKVCNGIGIGEFKDTLSINATNIKHFKYCTAISGDLHILPVAFKGDSFTRTPPLDPRELEILKTVKEITGSLLIQAWPENWTDLHAFENLEIIRGRTKQHGQFSLAVVGLNITS
B2: in the assay with HER-3, the “inhibition of heregulin-induced phosphorylation/activation of HER-3” value is on record as “neither rEGFR-447 nor hEGFR-501 is effective; also recorded: neither rEGFR-447 nor hEGFR-501 re effective”. The “attenuation of TGF-α-induced phosphorylation of Erks” value in assay [4] is “not”. In the assay on c-Src, the “attenuation of TGF-α-induced phosphorylation of Tyr416 of c-Src” value is recorded as “less attenuation”. Further, the “inhibition of growth of SKBR-3 cells” value in assay [5] is “neither rEGFR-447 nor hEGFR-501 caused any apparent change in the growth”. In addition, the “inhibition of growth (MTT)” value in assay [6] (increasing doses, FIG. 3) is “only marginally effective”. Further, the “attenuation of TGF-α-induced tyrosine phosphorylation of EGFR (amino acid 845)” value in the assay with EGFR was “do not attenuate”. In addition, in the assay with HER-2, the “inhibition of heregulin-induced phosphorylation/activation of HER-2” value is recorded as “neither rEGFR-447 nor hEGFR-501 is effective; also recorded: neither rEGFR-447 nor hEGFR-501 re effective”.

The values are drawn from patent US20120121589A1, “MODIFIED EGFR ECTODOMAIN” (WAYNE STATE UNIVERSITY, priority 2009, published 2012).
